T1: human interleukin 13 receptor subunit alpha 2 (IL-13RA2) (human, UniProt Q14627 27-380)
T1 construct: whole, on cells; also called IL-13Rα2; CD213A2
T1 sequence (looked up): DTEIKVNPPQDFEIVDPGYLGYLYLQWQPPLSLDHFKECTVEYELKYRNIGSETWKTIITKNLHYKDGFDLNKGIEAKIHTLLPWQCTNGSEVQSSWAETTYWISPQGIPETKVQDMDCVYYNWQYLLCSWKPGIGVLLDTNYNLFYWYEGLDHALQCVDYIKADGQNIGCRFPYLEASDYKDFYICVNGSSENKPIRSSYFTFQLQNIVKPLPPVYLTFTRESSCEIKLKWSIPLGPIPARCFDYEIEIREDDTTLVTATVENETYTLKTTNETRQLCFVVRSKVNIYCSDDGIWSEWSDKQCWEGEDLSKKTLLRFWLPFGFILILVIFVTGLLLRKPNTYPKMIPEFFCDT

B1: 57F8H3F1 H2L2 hIgG1 (antibody, V domains shown)
VH: QVQLVQSGAEVVKPGASVKVSCKASGYTFTNYWMNWVRQAPGQGLEWIGRIDAYETETHYNQKFRDRVTMTVDTSTSTVYMELSSLRSEDTAVYYCARGYGHYYGVDYWGQGTLVTVSS
VL: DIQMTQSPSSLSASVGDRVTITCRASENVGNFGISFVNWFQQKPGKAPKLLIYAASNLGSGDPSRFSGSGSGTDFTLTISSLQPEDFATYFCQQSKGVPWTFGQGTKVEIK
notes: humanized, hIgG1
B2: 57F8H3F1 H1L3 hIgG1 (antibody, V domains shown)
VH: QVQLVQSGAEVKKPGASVKVSCKASGYTFTNYWMNWVRQAPGQGLEWMGRIDAYETETHYNQKFRDRVTMTRDTSTSTVYMELSSLRSEDTAVYYCARGYGHYYGVDYWGQGTLVTVSS
VL: DIQLTQSPSSLSASVGDRVTITCRASENVGNFGISFVNWFQQKPGKAPKLLIYAASNLGSGDPARFSGSGSGTDFTLTISSLQPEDFATYFCQQSKGVPWTFGGGTKVEIK
notes: humanized, hIgG1
B3: 57F8H3F1 H3L4 hIgG1 (antibody, V domains shown)
VH: QVQLVQSGAEVVKPGASVKLSCKASGYTFTNYWMNWVKQAPGQGLEWIGRIDAYETETHYNQKFRDRATLTVDKSTSTVYMELSSLRSEDTAVYYCARGYGHYYGVDYWGQGTLVTVSS
VL: DIVLTQSPSSLSASVGDRATITCRASENVGNFGISFVNWFQQKPGKPPKLLIYAASNLGSGDPARFSGSGSGTDFTLTISSLQPEDFATYFCQQSKGVPWTFGGGTKLEIK
notes: humanized, hIgG1
B4: 57F8H3F1 H2L3 hIgG1 (antibody, V domains shown)
VH: QVQLVQSGAEVVKPGASVKVSCKASGYTFTNYWMNWVRQAPGQGLEWIGRIDAYETETHYNQKFRDRVTMTVDTSTSTVYMELSSLRSEDTAVYYCARGYGHYYGVDYWGQGTLVTVSS
VL: DIQLTQSPSSLSASVGDRVTITCRASENVGNFGISFVNWFQQKPGKAPKLLIYAASNLGSGDPARFSGSGSGTDFTLTISSLQPEDFATYFCQQSKGVPWTFGGGTKVEIK
notes: humanized, hIgG1
B5: 57F8H3F1 H1L4 hIgG1 (antibody, V domains shown)
VH: QVQLVQSGAEVKKPGASVKVSCKASGYTFTNYWMNWVRQAPGQGLEWMGRIDAYETETHYNQKFRDRVTMTRDTSTSTVYMELSSLRSEDTAVYYCARGYGHYYGVDYWGQGTLVTVSS
VL: DIVLTQSPSSLSASVGDRATITCRASENVGNFGISFVNWFQQKPGKPPKLLIYAASNLGSGDPARFSGSGSGTDFTLTISSLQPEDFATYFCQQSKGVPWTFGGGTKLEIK
notes: humanized, hIgG1
B6: 57F8H3F1 H3L1 hIgG1 (antibody, V domains shown)
VH: QVQLVQSGAEVVKPGASVKLSCKASGYTFTNYWMNWVKQAPGQGLEWIGRIDAYETETHYNQKFRDRATLTVDKSTSTVYMELSSLRSEDTAVYYCARGYGHYYGVDYWGQGTLVTVSS
VL: DIQMTQSPSSLSASVGDRVTITCRASENVGNFGISFVNWYQQKPGKAPKLLIYAASNLGSGVPSRFSGSGSGTDFTLTISSLQPEDFATYYCQQSKGVPWTFGQGTKVEIK
notes: humanized, hIgG1
B7: 57F8H3F1 H1L2 hIgG1 (antibody, V domains shown)
VH: QVQLVQSGAEVKKPGASVKVSCKASGYTFTNYWMNWVRQAPGQGLEWMGRIDAYETETHYNQKFRDRVTMTRDTSTSTVYMELSSLRSEDTAVYYCARGYGHYYGVDYWGQGTLVTVSS
VL: DIQMTQSPSSLSASVGDRVTITCRASENVGNFGISFVNWFQQKPGKAPKLLIYAASNLGSGDPSRFSGSGSGTDFTLTISSLQPEDFATYFCQQSKGVPWTFGQGTKVEIK
notes: humanized, hIgG1
B8: 57F8H3F1 H3L2 hIgG1 (antibody, V domains shown)
VH: QVQLVQSGAEVVKPGASVKLSCKASGYTFTNYWMNWVKQAPGQGLEWIGRIDAYETETHYNQKFRDRATLTVDKSTSTVYMELSSLRSEDTAVYYCARGYGHYYGVDYWGQGTLVTVSS
VL: DIQMTQSPSSLSASVGDRVTITCRASENVGNFGISFVNWFQQKPGKAPKLLIYAASNLGSGDPSRFSGSGSGTDFTLTISSLQPEDFATYFCQQSKGVPWTFGQGTKVEIK
notes: humanized, hIgG1
B9: 57F8H3F1 H2L4 hIgG1 (antibody, V domains shown)
VH: QVQLVQSGAEVVKPGASVKVSCKASGYTFTNYWMNWVRQAPGQGLEWIGRIDAYETETHYNQKFRDRVTMTVDTSTSTVYMELSSLRSEDTAVYYCARGYGHYYGVDYWGQGTLVTVSS
VL: DIVLTQSPSSLSASVGDRATITCRASENVGNFGISFVNWFQQKPGKPPKLLIYAASNLGSGDPARFSGSGSGTDFTLTISSLQPEDFATYFCQQSKGVPWTFGGGTKLEIK
notes: humanized, hIgG1
B10: 57F8H3F1 H3L3 hIgG1 (antibody, V domains shown)
VH: QVQLVQSGAEVVKPGASVKLSCKASGYTFTNYWMNWVKQAPGQGLEWIGRIDAYETETHYNQKFRDRATLTVDKSTSTVYMELSSLRSEDTAVYYCARGYGHYYGVDYWGQGTLVTVSS
VL: DIQLTQSPSSLSASVGDRVTITCRASENVGNFGISFVNWFQQKPGKAPKLLIYAASNLGSGDPARFSGSGSGTDFTLTISSLQPEDFATYFCQQSKGVPWTFGGGTKVEIK
notes: humanized, hIgG1
B11: 57F8H3F1 H1L1 hIgG1 (antibody, V domains shown)
VH: QVQLVQSGAEVKKPGASVKVSCKASGYTFTNYWMNWVRQAPGQGLEWMGRIDAYETETHYNQKFRDRVTMTRDTSTSTVYMELSSLRSEDTAVYYCARGYGHYYGVDYWGQGTLVTVSS
VL: DIQMTQSPSSLSASVGDRVTITCRASENVGNFGISFVNWYQQKPGKAPKLLIYAASNLGSGVPSRFSGSGSGTDFTLTISSLQPEDFATYYCQQSKGVPWTFGQGTKVEIK
notes: humanized, hIgG1
B12: 57F8H3F1 H2L1 hIgG1 (antibody, V domains shown)
VH: QVQLVQSGAEVVKPGASVKVSCKASGYTFTNYWMNWVRQAPGQGLEWIGRIDAYETETHYNQKFRDRVTMTVDTSTSTVYMELSSLRSEDTAVYYCARGYGHYYGVDYWGQGTLVTVSS
VL: DIQMTQSPSSLSASVGDRVTITCRASENVGNFGISFVNWYQQKPGKAPKLLIYAASNLGSGVPSRFSGSGSGTDFTLTISSLQPEDFATYYCQQSKGVPWTFGQGTKVEIK
notes: humanized, hIgG1
B13: 61H8C1 H4L3 hIgG1 (antibody, V domains shown)
VH: QVQLVQSGAEVAKPGASVKLSCKASGYTFTSYWTQWIKQAPGQGLEGIGAIYPGDDDTSYNQKFKGKATLTADKSTSTAYMQLSSLRSEDTAVYYCARGATLLRPFPYWGQGTLVTVSS
VL: DIQMTQSPSSLSTSVGDRVTITCKASQDVSTAVAWYQQKPGKSPKLLIYSASYRYTGVPDRFSGSGSGTDFTFTISSLQPEDFATYSCQQHYSIPPTFGGGTKLEIK
notes: humanized, hIgG1
B14: 61H8C1 H4L4 hIgG1 (antibody, V domains shown)
VH: QVQLVQSGAEVAKPGASVKLSCKASGYTFTSYWTQWIKQAPGQGLEGIGAIYPGDDDTSYNQKFKGKATLTADKSTSTAYMQLSSLRSEDTAVYYCARGATLLRPFPYWGQGTLVTVSS
VL: DIVMTQSPSSLSTSVGDRVTITCKASQDVSTAVAWYQQKPGKSPKLLIYSASYRYTGVPDRFTGSGSGTDFTFTISSVQPEDFATYSCQQHYSIPPTFGGGTKLEIK
notes: humanized, hIgG1

A word on the EC50: it is the concentration at which the effect is half-maximal. Read a high EC50 as a need for much substance.

In the assay the target is T1, human interleukin 13 receptor subunit …. The assay can be described thus: FACS on A375 cells. The procedure: A375 cells that endogenously expressed IL-13RA2, were harvested from flasks. 100 μl of 1×10⁶ cells/ml of cells were incubated with primary humanized antibodies in 4-fold serial dilutions starting from 200 nM to 0.003 nM for 30 minutes on ice. After being washed with 200 μl of FACS buffer twice, cells were incubated with secondary antibody for 30 minutes on ice. Cells were washed with 200 μl of FACS buffer twice and analyzed by FACS.
As to B1, the EC50 is 0.89 nM and the “Top (MFI)” value stood at 7090 MFI.
Take B2: the EC50 came out at 0.81 nM and the “Top (MFI)” value came out at 7540 MFI.
The corresponding values for B3 are 1.3 nM and 7610 MFI.
B4: the EC50 amounted to 0.92 nM and the “Top (MFI)” value was determined as 7010 MFI.
Take B5: the EC50 was found to be 0.94 nM and the “Top (MFI)” value stood at 7820 MFI.
As to B6, the EC50 is 0.71 nM and the “Top (MFI)” value came to 8160 MFI.
Turning to B7, the EC50 came out at 0.78 nM and the “Top (MFI)” value turned out to be 7510 MFI.
B8: the response was half-maximal at 1.25 nM (EC50) and the “Top (MFI)” value came out at 7420 MFI.
Consider B9, for which the concentration for a half-maximal effect (EC50) came to 1.01 nM and the “Top (MFI)” value was determined as 7140 MFI.
Consider B10, for which the EC50 came out at 1.62 nM and the “Top (MFI)” value was determined as 7610 MFI.
On to B11, for which the concentration giving a half-maximal response (EC50) was determined as 0.63 nM and the “Top (MFI)” value is 7020 MFI.
As to B12, the EC50 was found to be 0.38 nM and the “Top (MFI)” value worked out at 6910 MFI.
Take B13: a half-maximal effect (EC50) was put at 0.18 nM and the “Top (MFI)” value was found to be 20800 MFI.
On to B14, for which a half-maximal effect (EC50) was put at 0.19 nM and the “Top (MFI)” value amounted to 21600 MFI.

For the origin of these results see patent US20250163164A1 (LANOVA MEDICINES DEVELOPMENT, published 2025).
